Measurements: a protein production outcome set (Wang et al. 2014)

Assay: label from the status in PepcDB records

| Sequence | protein production |
| --- | --- |
| MRIIFKIIAFLSFFAFLSGCGAGLTAFSKGERLEREGKLDEAVIKYSEAVASNPEMNEYRMRLLKTSEEAALRHLSKGDEFIALKNYDAALVEYQAAVALDPSLQRAKQESDKLVRQKNSRTYFKEGQDFERGNKPREALQAYRKALDLDGQNKEAKEALERLLSTKKTRLEGYELNLKSTKPITLKFKDANLKDVFYIVTQLSGINFIFDDTIKDQKVTIYLENANFQQALDLLTNMNKLGKKVLNESTILIFPKTPEKSKQYEDLVVKTFFLNTLDAKKAVNLLRTMLQVRKVYVNEELNAIVVRDTSELVDVAGKILEANDVPDAEVLLDVEVIEVSKRNIENFGLALSKYAVSLNTQTPGGGFLNDTFSRASVSSSTGTTIQGTAGSELLQTFSWNGYSGFMTVPSASYSFGKSITNAEVLANPKIRVKNREKSKFTVGTRVPITTTSTTGTTGGFSVNVQYVDVGVKLNAEPTIMLNNEVSIKLGLEVSSIIDKQTVGGTDSATTVVTIGTRNLDTVLNLKDGETSVIGGLIEDNKQKGKQKIFLLGDIPIIGPLLSNNSNDNQKRELILAITPRLVRSVTVPEPDLVSFWSGKEDDPSVVKPFASFELEPEFAIGQPKTVKQPAASPAPVPASVSAPAQRVAPLQPVPGSPAPTAAPQTTTSPEVKQSAAPAPGQQPAPPSTAQSQAVAPLPVPASPAAPAATVAAASAVPVAAAPAPAVRGSLNISAPAAVNLGSQFKVEIRVSDVKGLLKAPFVLIYDPIFIDYVGAVEGTFLNRDGKPTSFNAQVDKAKGRVTITLARTGAEGIDGAGSLLTATFTAKNKGPASLGLQSVNFTDQANKPIDVVPYNTVVEVK | failed |
| MRILAIVKRIVNQFRRDKRTLALMFLAPLLLITLLTYLFEGDTVKPVVGVNGLSSSMVKELKENDLTIKTYPDNTNATAKIKDADLDAFFQQDGEKIKVTYENSEPSLSKEIGLKLQKALMAEQQVQVKKQAKTTGEALAKAGIDPNSLPALTNSPEKLTISTDYVYGDKDTSFFDTISPIFIGFFVFFFVFLIAGISFLRERTTGTLERLMATPIKRIELELGYLIGFGIFALLQSILVAVFSIQVLGMMQNGSLFYVLLITLTLGMVSLALGILLSTFANNEFQIVQFIPIVIVPQVLFCGIFPLDGMADWLVWIAHIMPLYYGANALTSIMVKGEGFASFANDFYILLGFVIIFVVLNIFALKKYRKV | failed |
| MRILLVGAGGFVGRHLLPALLAAGHELLLTARRPPVDAPAGVRWLALDLERLAERPDSFAWPAGVDLLINAAGTMSLDEASMARVQDSGARTLFDLAAAHGAKVLQISALGAGAHPDVAFLASKAAADRHLLELGIPALVLRPSLLLGPGGASSAWLERLSPLPLIPLLDNRARLQPLHVEDLVGAVLALLRCWPERAQVIPLVGPQALTQGELLDELRRAQGWPRGRYVVPPAALLDALGGLGRRAGWRTLSPSMLKLVRHDNLADPALLDEACGYRCAPLASRLLGWPQAARSLAALMRPLMLAALVLIWLGTLVACLGPGYGWGLRILGEAGIHGWPASLAVIAGALLDGALGVGLLLRRWRRRALLAQFWLMLGYSLAISLILPHYWYDPYMAVGKNIVLMVATLWLLGDEPRTREARG | failed |
| MRITASLRTFCHLSTPHSDSTTSRLWIDEVTAVARQRDRDSFMRIYDHFAPRLLRYLTGLNVPEGQAEELVQEVLLKLWHKAESFDPSKASLGTWLFRIARNLYIDSVRKDRGWVQVQNSLEQLERLEAPVDRTLDYSQRQEQQLNSAIQNLPTDQAKVLRMSYFEALSHREISERLDMPLGTVKSCLRLAFQKLRSRIEES | failed |
| MRITLVTDSTSDLPQDLRGRLGVRVVPLYVNLSGAIYRDWEEITPTEIFQKVREGAAFPTTSQPSPEDFARVYREALEEADHVLSLHISGKLSGTVQSAELAAQEFPGRVTVVDTQAASLGVGMMVLRAKELLEEGQSLEAVLAELERLRRDHFVRFSVATLEFLKRGGRIGGAQAFLGTLLNLKPVLTLKEGRVEAAGRARGEKKAREEILKAFRAWAEGRKRIRAYFLYSGDEDAVAALRQEVLASGLPVEEALVNELGAVIASHTGPGTYGFYAYSL | not failed |
| MRITRIMKTAKTARTTTSTRTSGARQAAAPLIKFSLFALVTMVATTLLAATIVNISLTPEHTYRAVFSDVTGLEKGDDIRVAGVRVGQVEGIRIKDRTLAEVTFTVGEDRPLLNSTGAVVRYRNLVGQRYVALTEGAGDATRLKPGATIPLSRTQPALDLNALLNGFKPLFAALSPQDVNQLATEIIRTLQGEGGTVNSLLAHTASLTTTLAGRDKLIGSVIDNLNTVLETLDQRGARFSGLLKQLRRVISGLSADRKPIGQSLVGIGDLTDATSGLLKDARPPLKDDIAELTDLTGTLNKNENTVEGVLKRLPNKLGELTGTASYGSWFNFYLCDFDGRIVLPKTKQVLTPELHVARARCGA | failed |
| MRIVIVGGSKFGVATAEQLIDKGHEVVLIDKNREKLEALTDRLDCGMIQGDGSSPKVLREAYAEENDVLVALTNASDDNILTALVARSVGFGRVIPQIVEAELLDVCVELDLKDTITPHVTVARSICRALEEDTELARDTNLTGDLRLLRLSVTSQLSGCSLSELDLPDECRAVAIVHEDREKFADPDAVVSEGEDILFAVHEDRVADLKALFATS | failed |
| MRIVSRDRWFETRHFYNGISLIHEPYVRPFYRCNMWHVQGRERDVLVDSGSGLVSLCEQLPWLTERPLLAVASHTHFDHIAGHHEFAERLAHPAEAEILAAPDGDNTLARAYVGDEMFEAHPECPLCYAEYRVRAAPATRLIDEGDVLDLGDRVLQVLHTPGHSPGGISLWEAATQTLFSGDIVYDGPLVEDAYHSNLDDYASSLARLRELPVRTVHGGHFASFSGERLREMIVAWFRNHDR | failed |
| MRKARGKAAKGGRAVTGDPIGDAAVLSALFANSPQGLFVFDSEQKVTRYNPAGRGVRGLPEEDVVGQGIADFVPGFEAVELQGLIDEVLATGEALRGRLVRGRAPSGPHRTLAVEVSLFPLRDLGDGKPGLVGVVEDVTE | failed |
| MRKGQETRERVVAQAAALFNVSGYAGTAISDIMAATGLEKGGIYRHFESKEQLALAAFDYAAEKVRERFAVGLAGHKHTVDTIIAFLDVFRSYAERPPLVGGCPILNTAIESDDTNPMLRERVRAVIDEWRETIRTLVQTGIARGEIRPEVDADRLALLIIATMEGAVMLARILETATPLEHAYTHLATYITQQVRLA | not failed |
| MRKLLSVIVSLMTAMAFAQQPVELPLWPDGAPNSNGLTGGEKEVSPHRLSNVTAPTITVYRAPQPNGMAVIMCPGGGYSRLAMDHEGHDMASWFCGQGITYVVLKYRMPNGHCEVPLSDAERAIRIVREHAGEWNIHPRKIGIMGASAGGHLASTLATHYSAASRPDFQILLYPVVTMTQSTHGGSRKELLGGNPTAEQEVLFSNELQVTSDTPQAFIVLSSDDGAVPPSNGVNYYLALQKNNVPASLHVYPTGGHGWGFRDNFKYKQQWTQELEKWLREGVVFPKETAPMLRIGKTYLGTKYVANTLDQGTEEKLVILPQTVDCLTFVEYTLAQAMGSSFADNLQKIRYRDGVIDGYTSRLHYTSDWIENGVRQGFLEDVTAQNSTQTTKLSLSYMSTHPQKYRQLADSPENVKRMAEHEKALSGKKVHWLPKGKLPDAGLPWIMDGDIIAITTNLPGLDVAHVGMAEYINGKLHLLHASSTLGKVVVSEEPLSQMLRNNKSWSGIRVVRMSHP | failed |
| MRKLNNHDVHKRYQDRLEEDVEFTINYELPLSCLWSTIKDFSSDFEEKTEAFFILFKELLRRGHLKLQRDGQIIGHTPEEWEQIFREVWPEYEIEPNPLPGYAPFDIGMWLTVEAPAYAVWIDPEDGSEYWAG | not failed |
| MRKMTGEEFDPLVSFFDGMAQASWLRPVHDRLKKGTGSWANRAVLDVGCGTGRLLARGVHEAAHLAGVDLSKQMVLATEERLHEHKQCGRLTVVQGDAYDLPFADESFDVCLSTCVMFLLPEPERGMKEMIRVLNGAGVIGMLNPTNKMNHAAAKAYCKKSGITGFEEKTLLQWSNVSTRRHRYTAEQLTHFFKQHGAWVVTHELVLDGLAVVTVASWNKLEHHHHHH | not failed |
| MRKNEYVNLPVICLVGPTASGKSGLAVRVCRRLYVDEHPAEIINTDSMVVYRGMDIGTATPTLREQRTVVHHLVSILDVTVPSSLVLMQTLARDAVEDCLSRGVIPVLVGGSALYTKAIIDEMSIPPTDPEVRARWQEKLDAEGPRVLHDELARRDPKAAESILPGNGRRIVRALEVIDLTGSFTATIPDGTLHWPKTVQMGLELSRKDIDQRIADRVDQMWAYGFVDEVRSLANVGLREGLTASRALGYRQVLEYLNGDYDEDEARRRTIIGTRRFARKQLMWYRRDDRIEWFNALAPDLDDRVVARVLTALTTDEED | failed |
| MRKVLSFSAFLIIGLLLSQYLPLLAGEGYATVKIVSNILLYICLSFIMINVGREFEVDKTRWRSYAGDYFIAMATAAMPWFLIAIYYVFVLLPPEFWNSWEAWKENLLLSRFAAPTSAGILFTMLAAIGLKSSWIYKKIQVLAIFDDLDTILLMIPLQIMMIGLRWQLIVVVFIVFLLLSLGWKQLGRYNWRQDWKAIMGYSVLVFVATQAVYYFSKQLYGEEGSIHIEVLLPAFVLGMIMKHKEIDTPVEHKVSTGVSFLFMFLVGMSMPHFIGVNFAETHAGTHSVTGSQEMMSWGMIALHVLIVSLLSNIGKLFPVFFYRDRKFSERLALSIGMFTRGEVGAGVIFIALGYNLGGPALVISVLTIVLNLILTGIFVLWVKKLALRSYTT | failed |
| MRKVRPEELPALLEEGVLVVDVRPADRRSTPLPFAAEWVPLEKIQKGEHGLPRRPLLLVCEKGLLSQVAALYLEAEGYEAMSLEGGLQALTQGK | not failed |
| MRLAVLADIHGNADALEAVRADLALQSPDLVVNLGDCLSGPLEVERTADLLMEANWPAVRGNHDRWLVEPEGGTVWETDARPRLSAAQRDWLAALPATRVEAGAFLCHATPGSDLIYWLHHVTPEGHVAPSPLERISRFADGITERLILCGHTHLARSVRLPDGRLVVNPGSVGCPGYEDDAPVPHRVESGTPAACYAILDSKGGDWRVTFRQIPYDHDRAARLAGRYGRPDWESVLATGWLPAQKGQGAL | failed |
| MRLDLSAKFRQVLGLAKDHASIGRAIVQNYNEKAFFDIEVAVVRATSHDDCPVDDKTMHEILFLVSNTPGSIPFLAEQISRRLAKTRDCLVAGKTLLLFHRLLRGSSRSIEQQLHIAHTSGHLQIGCSWFMMSLDSRSFVFLQNYVAYLQERVGWIINQAGKLEPVMSGGTKFSRYKEKSMDLVFHILPKCQEFIAQVLKCSPVDAWPIDNLVQAATGNILKESFQVYMTYSDGMTALVSMLFDLSRPARDLACGMLRKASQQIQDLRILYDKCRGFAGMKSLDYPSVQAISMDHIVALEECSSYGGKRGFSLSTNLRDAITCNELKQEQHSASFSSTSPFSLPVETKISMVWVVFDNEDGEESDKQTEKAYER | failed |
